Experimental data: the RNAGym collection of RNA variant scans (doi:10.7554/elife.80360)

B1: CPEB3 Ribozyme (parent)
chain: GGGGGCCACAGCAGAAGCGUUCACGUCGCGGCCCCUGUCAGAUUCUGGUGAAUCUGCGAAUUCUGCUGU

Variants of: B1
Assay: self-cleavage, relative activity (ratio to wild type); higher = more cleavage; co-transcriptional

Variant | self-cleavage
U36C A40U | 0.64
U36C A40G | 0.858
U36C A40C | 0.506
U36C G48C | 0.948
U36C G48A | 0.94
U36C G48U | 0.981
U36C U62G | 0.581
U36C U62A | 0.654
U36A A60U | 0.242
U36A A60C | 0.19
U36A A60G | 0.269
G37C U69G | 0.375
U36G U44G | 0.219
U36G U44A | 0.246
U36G G65A | 0.207
U36G G65C | 0.25
U36A A59G | 0.263
U36A A59C | 0.157
G37C G68C | 0.245
G37C G68U | 0.245
G37C G68A | 0.304
U36C U53G | 0.544
U36C U53A | 0.767
U36C U53C | 0.806

Variant | self-cleavage
U36A U49A | 0.263
U36A U49G | 0.225
U36A U67G | 0.181
U36A U67C | 0.215
U36A U67A | 0.246
U36G G56U | 0.19
U36G G56A | 0.246
G37C C45A | 0.168
G37C C45U | 0.203
U36G U69A | 0.297
U36A C63U | 0.185
U36A C63G | 0.213
G37A U46C | 0.338
G37A U46A | 0.375
G37A U46G | 0.281
U36G C66A | 0.232
U36G C66G | 0.167
U36G C66U | 0.22
U36G G50U | 0.306
U36G A60U | 0.181
U36G G37C | 0.22
U36G G37A | 0.198
U36G G37U | 0.199
U36A U38C | 0.216

Variant | self-cleavage
U36A U38A | 0.25
U36A U38G | 0.185
G37U A42G | 0.234
G37U A42U | 0.246
G37U A42C | 0.256
G37A U49G | 0.37
G37C C66G | 0.177
G37C C66A | 0.222
G37C C66U | 0.246
G37C G56A | 0.205
G37C G56U | 0.237
G37A G65A | 0.252
G37A G65C | 0.258
G37A G65U | 0.325
U36A G65U | 0.203
U36A G65C | 0.31
G37C G48A | 0.182
G37C G48U | 0.288
U36G A42G | 0.225
G37C U67C | 0.282
U36A C39A | 0.233
U36C G58U | 0.963
G37U A40C | 0.205
G37U A40G | 0.366

Variant | self-cleavage
U36A U61C | 0.171
U36C U69C | 1.05
U36C U69G | 1.02
U36C U38G | 0.244
G37C C63A | 0.261
G37C C63U | 0.281
G37C C63G | 0.25
U36A C57A | 0.213
U36A C57U | 0.233
U36A C57G | 0.231
U36C U49G | 0.848
U36C U49C | 0.863
U36C U49A | 0.923
G37C A52G | 0.264
G37C A52C | 0.216
G37A U64G | 0.254
G37A U64A | 0.246
G37C A42U | 0.234
G37C C57U | 0.192
G37C C57A | 0.242
G37C C57G | 0.189
U36G G41U | 0.373
U36G G41A | 0.144
U36G G41C | 0.278

Variant | self-cleavage
G37A U69C | 0.498
G37C U46C | 0.174
U36A U43A | 0.249
U36A U43G | 0.214
U36A G56C | 0.201
U36A G56U | 0.177
G37C U38A | 0.246
G37C U38C | 0.201
G37C G58C | 0.277
G37C G58U | 0.353
G37C G58A | 0.242
G37C A59G | 0.234
G37C A59C | 0.183
G37C G47A | 0.189
G37C G47U | 0.209
G37A U43G | 0.359
G37A U43C | 0.261
G37A U43A | 0.261
G37C U61G | 0.282
G37C U61A | 0.201
G37C U61C | 0.223
G37A G56C | 0.232
U36C A59C | 0.42
U36C A59G | 0.962

Variant | self-cleavage
U36C A59U | 0.448
U36A C66A | 0.294
U36A C66U | 0.187
U36G U49C | 0.146
G37C U53A | 0.256
U36A G68A | 0.317
U36A G68C | 0.227
U36A G41U | 0.251
U36A G41C | 0.22
U36G U46C | 0.21
U36C U44G | 0.859
U36C U44C | 0.688
U36C U44A | 0.854
G37A C57A | 0.217
G37A C57U | 0.247
G37A C57G | 0.241
U36C G56C | 0.46
U36C G56U | 0.696
U36C G56A | 0.814
U36C G68A | 0.932
U36C G68C | 0.991
U36G U53C | 0.267
G37C G65U | 0.237
G37C G65A | 0.246

Variant | self-cleavage
U36C A60C | 0.268
U36C A60U | 0.376
U36C A60G | 0.636
U36A A51U | 0.306
U36A A51C | 0.242
G37C C54A | 0.201
G37C C54U | 0.25
U36C C45A | 0.865
U36C C45G | 0.866
G37A A42U | 0.275
G37A A42C | 0.293
G37C U62A | 0.212
G37C U62G | 0.157
U36G A52C | 0.318
U36G A52G | 0.296
U36G A52U | 0.271
U36C U67G | 0.949
U36G U67A | 0.0785
U36G U67C | 0.239
U36A A42C | 0.191
U36A A42U | 0.242
U36C U43C | 0.856
U36C U43A | 0.787
G37A A52U | 0.273

Variant | self-cleavage
G37A A52G | 0.268
U36A U64G | 0.202
U36A U64A | 0.232
U36C C54G | 0.765
U36C C54A | 0.736
U36C C54U | 0.973
G37A C54A | 0.235
G37A C54U | 0.417
G37A A60G | 0.209
U36G C63U | 0.315
U36G C63G | 0.181
U36C A42C | 0.732
U36C A42U | 0.869
U36C A42G | 0.77
G37A G50C | 0.215
G37A G50U | 0.28
G37A G58C | 0.344
G37A A59G | 0.36
G37A A59C | 0.213
G37A C63U | 0.364
G37A C63A | 0.228
U36G G47C | 0.293
U36G G47A | 0.252
G37A U67A | 0.389

Variant | self-cleavage
U36A U53G | 0.286
U36A U53A | 0.282
G37C A51U | 0.171
G37C A51C | 0.251
U36A A40C | 0.223
U36A A40G | 0.248
U36G U61A | 0.341
G37A U62C | 0.321
G37A U62A | 0.225
G37C U44C | 0.187
G37C A60U | 0.306
G37C A60C | 0.236
U36A A52G | 0.178
U36A A52U | 0.166
U36G U38G | 0.2
U36G U38C | 0.248
U36C G50C | 0.895
G37A G68A | 0.377
G37A G68U | 0.385
G37C C39U | 0.268
G37C C39A | 0.215
G37C C39G | 0.167
U36C C63G | 0.548
U36C C63A | 0.587

Variant | self-cleavage
G37A C39A | 0.236
G37A C39U | 0.372
U36A G47U | 0.321
U36A G47C | 0.269
U36A G47A | 0.295
U36G C39G | 0.24
U36G C39A | 0.204
U36G C39U | 0.218
G37A G47C | 0.308
G37A G47A | 0.312
G37A G47U | 0.36
G37A G48U | 0.251
G37A | 0.32
G37C | 0.241
G37U | 0.319
U36C G41C | 0.552
U36C G41U | 0.664
U36C G41A | 0.507
G37A U38G | 0.251
G37A U38A | 0.291
G37A U38C | 0.34
U36C C57A | 0.251
U36C C57G | 0.3
U36A U44C | 0.295

Variant | self-cleavage
G37C U64G | 0.205
U36C A52C | 0.997
U36C A52U | 0.915
U36C U64C | 0.823
U36C U64G | 0.762
U36C C39G | 0.847
U36G C57G | 0.109
U36A G58U | 0.253
U36A G58C | 0.226
C35U U69C | 1.08
C35U U69G | 1.01
U36G A40G | 0.219
U36G A40C | 0.236
U36G A59C | 0.182
U36G A59U | 0.189
U36G A59G | 0.238
G37C U55C | 0.267
G37C U55G | 0.236
G37C U55A | 0.25
U36A U55C | 0.181
U36A U55G | 0.289
U36A U55A | 0.209
C35U U67G | 1.03
C35U U67C | 0.979

Variant | self-cleavage
U36G U62C | 0.21
U36C G47A | 0.953
U36C G47C | 0.993
U36C G47U | 0.892
G37A C45U | 0.351
G37A C45G | 0.281
U36A U46G | 0.255
U36A U46A | 0.164
U36C U46C | 0.987
U36C U46A | 0.922
U36A U62G | 0.249
U36A U62A | 0.218
U36G U55A | 0.238
U36A G50C | 0.249
U36A G50A | 0.213
G37A C66U | 0.263
U36A G48C | 0.291
U36A G48U | 0.311
U36C A51U | 0.879
U36C A51C | 0.88
G37C U43A | 0.264
G37C U43C | 0.203
U36G G48C | 0.266
U36G G48A | 0.236

Variant | self-cleavage
U36C G37U | 0.287
U36C G37C | 0.237
U36A C45G | 0.282
U36A C45A | 0.158
U36C U61C | 0.524
U36C U61A | 0.557
G37A U55A | 0.275
G37A U55C | 0.216
U36C C66G | 0.621
U36C C66A | 0.603
G37A U61A | 0.202
U36C G65C | 0.414
U36C G65A | 0.67
G37A A51U | 0.285
U36G U43G | 0.231
U36G U43C | 0.268
U36G U43A | 0.26
G37A U44C | 0.326
G37A U44G | 0.223
G37A G41C | 0.192
G37A G41A | 0.231
U36G G58C | 0.277
U36G G58A | 0.24
U36A C54U | 0.35

Variant | self-cleavage
U36G C54U | 0.293
U36G C45A | 0.276
U36G C45G | 0.251
G37A A40C | 0.261
G37A A40U | 0.244
G37A A40G | 0.334
G37A U53C | 0.231
U36G U64G | 0.195
U36G U64C | 0.188
G37U A52U | 0.317
G37U A52G | 0.282
G37C U49C | 0.286
G37C U49G | 0.234
G37C A40C | 0.242
G37C A40G | 0.181
G37C A40U | 0.267
G37C G50U | 0.188
G37C G50C | 0.265
G37C G50A | 0.257
G37C G41U | 0.201
U36A U69C | 0.558
U36A U69A | 0.377
